# From US20160264674A1 (ADURO BIOTECH HOLDINGS EUROPE B V, published 2016)
# T1: FLAG-tagged human APRIL (human, UniProt O75888 105-250, limits assumed)
# T1 construct: also called FLAG-tagged APRIL; FLAG-APRIL; not shown: FLAG tag
# T1 sequence (looked up): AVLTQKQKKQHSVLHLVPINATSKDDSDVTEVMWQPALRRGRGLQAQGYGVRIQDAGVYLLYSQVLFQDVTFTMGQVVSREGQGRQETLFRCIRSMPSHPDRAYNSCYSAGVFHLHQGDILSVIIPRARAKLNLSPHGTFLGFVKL
# B1: VH14.VL15 (antibody, human IgG4 S228P, kappa, V domains shown)
# VH: QVQLVQSGAEVKKPGASVKVSCKASGYTFTSYVMHWVRQAPGQGLEWMGYINPYNDAPKYNEKFKGRVTMTRDTSASTAYMELSSLRSDDTAVYYCARGLGYALYYAMDYWGQGTTVTVSS
# VL: DIVMTQSPSTLSASVGDRVTITCKASQNVGNNVAWYQQKPGKAPKLLISSASNRDSGVPSRFSGSGSGTEFTLTISSLQPDDFATYFCQQYNIYPFTFGQGTKLEIKR
# notes: Humanized IgG4 (S241P, Kabat) with human kappa, from HEK293T
# B2: VH13.VL15 (antibody, human IgG4 S228P, kappa, V domains shown)
# VH: QVQLVQSGAEVKKPGASVKVSCKASGYTFTSYVMHWVRQAPGQGLEWMGYINPYNDAPKYNEKFKGRVTMTRDTSTSTVYMELSSLRSEDTAVYYCARGLGYALYYAMDYWGQGTMVTVSS
# VL: DIVMTQSPSTLSASVGDRVTITCKASQNVGNNVAWYQQKPGKAPKLLISSASNRDSGVPSRFSGSGSGTEFTLTISSLQPDDFATYFCQQYNIYPFTFGQGTKLEIKR
# notes: Humanized IgG4 (S241P, Kabat) with human kappa, from HEK293T; also called 13.15
# B3: VH12.VL15 (antibody, human IgG4 S228P, kappa, V domains shown)
# VH: QVQLVQSGAEVKKPGASVKVSCKASGYTFTSYVMHWVRQAPGQGLEWMGYINPYNDAPKYNEKFKGRVTMTRDTSISTAYMELSRLRSDDTAVYYCARGLGYALYYAMDYWGQGTTVTVSS
# VL: DIVMTQSPSTLSASVGDRVTITCKASQNVGNNVAWYQQKPGKAPKLLISSASNRDSGVPSRFSGSGSGTEFTLTISSLQPDDFATYFCQQYNIYPFTFGQGTKLEIKR
# notes: Humanized IgG4 (S241P, Kabat) with human kappa, from HEK293T; also called 12.15
# Tests used:
# FLAG-tagged human APRIL [1] = target: T1, FLAG-tagged human APRIL; assay: FLAG-APRIL ELISA after 10 min at 65 °C, antibody at 3.16 µg/ml
# Description: (§1) The plasmids encoding the VH and VL constructs were mixed in a 1:3 ratio (4 μg in total) and transiently expressed by transfection into HEK293T human embryonic kidney cells (HEK293T/17, ATCC-CRL-11268), using Lipofectamine 2000 transfection reagent (Invitrogen) following the manufacturer's instructions. Cell supernatants were harvested after 5 days and tested for expression of antibody and binding to APRIL using an enzyme-linked immuno assay (ELISA). In these ELISAs, all incubation steps were followed by a wash step with PBST (PBS with 0.01% Tween 20). Maxisorb 96-wells plates (Nunc) were coated with 0.5 μg/ml anti-FLAG (Sigma) or anti-IgG4 (Jackson laboratories) and incubated overnight at 4° C. Subsequently the anti-FLAG coated 96-wells plates were incubated with FLAG-tagged human APRIL for 1 hour at room temperature. Next, supernatants and dilutions thereof were incubated for 1 hour, which was followed by an incubation of 1 hour with mouse anti-human IgG HRP-conjugate (Southern Biotechnology).
# (§2) To determine the effect of humanization on the stability of the antibodies, humanized antibodies were exposed to a range of temperatures for 10 minutes. Purified antibodies were diluted to 3.16 μg/ml and dilutions thereof in PBS. Next, these solutions were exposed to 65° C. or 70° C. and residual binding after heat treatment of the antibodies was measured using the FLAG-tagged APRIL ELISA assay as described before (see Table 6).
# (§3) In addition, the stability of the substituted humanized antibodies was improved as determined using thermostability studies as described in Example 3 (see Table 9).
# FLAG-tagged human APRIL [2] = target: T1, FLAG-tagged human APRIL; assay: FLAG-APRIL ELISA after 10 min at 65 °C, antibody at 1 µg/ml
# Description: as §1, §2, §3
# FLAG-tagged human APRIL [3] = target: T1, FLAG-tagged human APRIL; assay: FLAG-APRIL ELISA after 10 min at 70 °C, antibody at 1 µg/ml
# FLAG-tagged human APRIL [4] = target: T1, FLAG-tagged human APRIL; assay: ELISA: FLAG-tagged human APRIL captured on anti-FLAG plate, purified antibody titrated
# Description: as §1
# A subset of humanized antibodies described above was selected for further analyses. Again, plasmids encoding the VH and VL constructs were mixed in a 1:3 ratio (32 μg) and transiently expressed by transfection into (8*10⁶) HEK293T human embryonic kidney cells (HEK293T), using Lipofectamine 2000 transfection reagent (Invitrogen) according to the manufacturer's instructions. Supernatants were harvested (10 ml) and antibodies were purified using MabSelect Sure Protein A resin according to the manufacturer's instructions (GE Healthcare). Buffer was exchanged for PBS using Zeba desalting columns (Thermo Scientific). The concentration of purified antibodies was determined based on OD280 (Nanodrop ND-1000). The binding of the purified antibodies to APRIL was established using the above described APRIL ELISA. The blocking capability of the humanized antibodies with BCMA and TACI receptors, was tested in a competition ELISA. In these ELISAs, all incubation steps were followed by a wash step with PBST (PBS with 0.01% Tween 20). Maxisorb 96-wells plates (Nunc) were coated with 0.5 μg/ml Fc-BCMA (R&D Systems) or Fc-TACI (R&D Systems) and incubated overnight at 4° C. Next, humanized antibodies and dilutions thereof were incubated, premixed with FLAG-tagged APRIL, for 1 hour, which was followed by an incubation of 1 hour with anti-FLAG HRP-conjugate (Sigma).
# FLAG-tagged human APRIL [5] = target: T1, FLAG-tagged human APRIL; assay: FLAG-APRIL ELISA after 10 min at 70 °C, antibody at 0.316 µg/ml
# FLAG-tagged human APRIL [6] = target: T1, FLAG-tagged human APRIL; assay: FLAG-APRIL ELISA after 10 min at 70 °C, antibody at 3.16 µg/ml
# FLAG-tagged human APRIL [7] = target: T1, FLAG-tagged human APRIL; assay: FLAG-APRIL ELISA after 10 min at 70 °C, antibody at 1 µg/ml; remark: listed apart in the source
# Description: as §1, §2
# FLAG-tagged human APRIL [8] = target: T1, FLAG-tagged human APRIL; assay: FLAG-APRIL ELISA after 10 min at 65 °C, antibody at 0.316 µg/ml
# Description: as §1, §2
# FLAG-tagged human APRIL [9] = target: T1, FLAG-tagged human APRIL; assay: FLAG-APRIL ELISA after 10 min at 65 °C, antibody at 3.16 µg/ml; remark: listed apart in the source
# Description: as §1, §2
# FLAG-tagged human APRIL [10] = target: T1, FLAG-tagged human APRIL; assay: FLAG-APRIL ELISA after 10 min at 65 °C, antibody at 1 µg/ml; remark: listed apart in the source
# Description: as §1, §2
# FLAG-tagged human APRIL [11] = target: T1, FLAG-tagged human APRIL; assay: FLAG-APRIL ELISA after 10 min at 65 °C, antibody at 0.316 µg/ml; remark: listed apart in the source
# Description: as §1, §2, §3
# FLAG-tagged human APRIL [12] = target: T1, FLAG-tagged human APRIL; assay: FLAG-APRIL ELISA after 10 min at 70 °C, antibody at 0.316 µg/ml; remark: listed apart in the source
# Description: as §1, §2
# FLAG-tagged human APRIL [13] = target: T1, FLAG-tagged human APRIL; assay: FLAG-APRIL ELISA after 10 min at 70 °C, antibody at 3.16 µg/ml; remark: listed apart in the source
# Description: as §1, §2
Binder,% residual binding after heat treatment (room temperature = 100%) (FLAG-tagged human APRIL [1]) [%],% residual binding after heat treatment (room temperature = 100%) (FLAG-tagged human APRIL [2]) [%],% residual binding after heat treatment (room temperature = 100%) (FLAG-tagged human APRIL [3]) [%],EC50 (FLAG-tagged human APRIL [4]) [nM],% residual binding after heat treatment (room temperature = 100%) (FLAG-tagged human APRIL [5]) [%],% residual binding after heat treatment (room temperature = 100%) (FLAG-tagged human APRIL [6]) [%],% residual binding after heat treatment (room temperature = 100%) (FLAG-tagged human APRIL [7]) [%],% residual binding after heat treatment (room temperature = 100%) (FLAG-tagged human APRIL [8]) [%],% residual binding after heat treatment (room temperature = 100%) (FLAG-tagged human APRIL [9]) [%],% residual binding after heat treatment (room temperature = 100%) (FLAG-tagged human APRIL [10]) [%],% residual binding after heat treatment (room temperature = 100%) (FLAG-tagged human APRIL [11]) [%],% residual binding after heat treatment (room temperature = 100%) (FLAG-tagged human APRIL [12]) [%],% residual binding after heat treatment (room temperature = 100%) (FLAG-tagged human APRIL [13]) [%]
B1,59,47.5,55.1,48.3,79.1,58.6,42.5,63.7,58.6,45.2,67.5,63.1,50
B2,,,,223,,,47.4,66.1,76.2,44.4,,65,80.5
B3,,,,19.8,,,51.8,74.3,66.4,49.8,,70.3,50.2
